Measured values: paper PMC12431671, “Receptor transporter protein 4 (RTP4)-mediated repression of hepatitis C virus replication in mouse cells” (PLOS Pathogens, 2025)

Target: T1, HCV NS5A protein (hepatitis C virus J6/JFH1-Jc1, UniProt Q99IB8 1977-2442)
T1 construct: NS5A, cut product of the polyprotein of hepatitis C virus J6/JFH1 (Jc1) chimeric genome; Untagged viral protein, detected with the mouse anti-NS5A antibody 9E10 (a tool); NS5A is a stretch of it; source: made by HCV J6/JFH1-Jc1 infection (MOI of 1) of Huh7-Lunet cells, in fixed cells
T1 sequence: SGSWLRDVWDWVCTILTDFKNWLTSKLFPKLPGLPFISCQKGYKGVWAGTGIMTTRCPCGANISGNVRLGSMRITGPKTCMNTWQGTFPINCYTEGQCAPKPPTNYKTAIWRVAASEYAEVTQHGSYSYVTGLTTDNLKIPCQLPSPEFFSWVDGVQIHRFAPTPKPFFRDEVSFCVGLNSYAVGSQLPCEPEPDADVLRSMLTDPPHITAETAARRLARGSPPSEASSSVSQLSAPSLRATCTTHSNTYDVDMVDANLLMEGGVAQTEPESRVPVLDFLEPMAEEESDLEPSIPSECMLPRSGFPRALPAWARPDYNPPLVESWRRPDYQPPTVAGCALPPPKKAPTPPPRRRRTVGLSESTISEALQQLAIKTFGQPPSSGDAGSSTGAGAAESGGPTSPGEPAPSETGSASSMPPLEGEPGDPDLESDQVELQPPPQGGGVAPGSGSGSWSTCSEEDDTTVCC
Assay: proximity ligation; in situ PLA (Duolink In Situ Detection Reagents Green) in Huh7-Lunet cells infected with HCV J6/JFH1-Jc1 at MOI 1, transduced with FLAG-mmRTP4 or FLAG-hsRTP4 lentivirus, fixed in methanol 48 h post-transduction; Anti-Rabbit MINUS and Anti-Mouse PLUS probes; foci counted in 10 images per sample
Conditions: partners not purified

B1: FLAG-tagged murine receptor transporter protein 4 (FLAG-mmRTP4) (natural protein)
chain: MLFPDDFSTWEQTFQELMQEEKPGAKWSLHLDKNIVPDGAALGWRQHQQTVLGRFQCSRCCRSWTSAQVMILCHMYPDTLKSQGQARMRIFGQKCQKCFGCQFETPKFSTEIIKRILNNLVNYILQRYYGHRKIALTSNASLGEKVTLDGPHDTRNCEACSLNSHGRCALAHKVKPPRSPSPLPKSSSPSKSCPPPPQTRNTDFGNKTFQDFGNRTFQGCREPPQREIEPPLFLFLSIAAFALFSLFTR
notes: Receptor transporter protein 4 (RTP4), mouse; also called mouse RTP4; murine RTP4; source: Huh7-Lunet cells, lentivirally transduced (pLVX), HCV-infected, in fixed cells; not shown: FLAG, N-terminal, kept
  frequency of PLA foci relative to FLAG-hsRTP4 with NS5A: 2 fold
